Data: PMC10998613
Like-named read-outs stand apart in the source and are kept apart here.

T1: CXCR4-AcGFP1 / CXCR4-mCherry (C-X-C motif chemokine receptor 4 with a C-terminal fluorescent protein) (human), P61073
T1 chain: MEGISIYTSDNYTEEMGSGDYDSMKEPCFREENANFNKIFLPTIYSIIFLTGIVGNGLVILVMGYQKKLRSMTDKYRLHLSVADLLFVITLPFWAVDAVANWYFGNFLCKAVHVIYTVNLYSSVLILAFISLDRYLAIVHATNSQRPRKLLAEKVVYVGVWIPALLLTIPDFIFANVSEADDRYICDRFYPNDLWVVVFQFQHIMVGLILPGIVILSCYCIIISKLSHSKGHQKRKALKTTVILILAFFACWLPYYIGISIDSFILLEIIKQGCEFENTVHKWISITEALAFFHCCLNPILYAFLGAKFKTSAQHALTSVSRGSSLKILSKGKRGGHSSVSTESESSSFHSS


Legend:
Test in all cases: PIE-FCCS
[1] = target: β2AR-AcGFP1 / β2AR-mCherry (β2-adrenergic receptor with a C-terminal fluorescent protein) (human) (UniProt P07550)
[2] = target: β2AR-AcGFP1 / β2AR-mCherry (β2-adrenergic receptor with a C-terminal fluorescent protein) (human) (UniProt P07550); remark: listed apart in the source
[3] = target: T1, CXCR4-AcGFP1 / CXCR4-mCherry (C-X-C …); details: remark: other sources report otherwise
[4] = target: T1, CXCR4-AcGFP1 / CXCR4-mCherry (C-X-C …); details: remark: other sources report otherwise

| fc [1] | fc [2] | median fc [3] | mean fc [4] | median fc [4] | Molecule |
| --- | --- | --- | --- | --- | --- |
| 0.13 | 0.11 |  |  |  | β2AR-AcGFP1 / β2AR-mCherry (β2-adrenergic receptor with a C-terminal fluorescent protein) (from UniProt P07550 1-413) |
|  |  | 0.18 | 0.39 | 0.31 | CXCR4-AcGFP1 / CXCR4-mCherry (C-X-C motif chemokine receptor 4 with a C-terminal fluorescent protein), P61073 1-352 (receptor) MEGISIYTSDNYTEEMGSGDYDSMKEPCFREENANFNKIFLPTIYSIIFLTGIVGNGLVILVMGYQKKLRSMTDKYRLHLSVADLLFVITLPFWAVDAVANWYFGNFLCKAVHVIYTVNLYSSVLILAFISLDRYLAIVHATNSQRPRKLLAEKVVYVGVWIPALLLTIPDFIFANVSEADDRYICDRFYPNDLWVVVFQFQHIMVGLILPGIVILSCYCIIISKLSHSKGHQKRKALKTTVILILAFFACWLPYYIGISIDSFILLEIIKQGCEFENTVHKWISITEALAFFHCCLNPILYAFLGAKFKTSAQHALTSVSRGSSLKILSKGKRGGHSSVSTESESSSFHSS |
